Test results from paper PMC6946549 (Biochemistry, 2019).

B1: ChsH2 (chain beta of the ChsH1-ChsH2-Ltp2 complex) (enzyme)
chain: MTGVSDIQEAVAQIKAAGPSKPRLARDPVNQPMINNWVEAIGDRNPIYVDDAAARAAGHPGIVAPPAMIQVWTMMGLGGVRPKDDPLGPIIKLFDDAGYIGVVATNCEQTYHRYLLPGEQVSISAELGDVVGPKQTALGEGWFINQHIVWQVGDEDVAEMNWRILKFKPAGSPSSVPDDLDPDAMMRPSSSRDTAFFWDGVKAHELRIQRLADGSLRHPPVPAVWQDKSVPINYVVSSGRGTVFSFVVHHAPKVPGRTVPFVIALVELEEGVRMLGELRGADPARVAIGMPVRATYIDFPDWSLYAWEPDE
B2: Ltp2 (17-hydroxy-3-oxo-4-pregnene-20-carboxyl-CoA retro-aldolase; chain gamma of the ChsH1-ChsH2-Ltp2 complex) (enzyme)
chain: MLSGQAAIVGIGATDFSKNSGRSELRLAAEAVLDALADAGLSPTDVDGLTTFTMDTNTEIAVARAAGIGELTFFSKIHYGGGAACATVQHAAMAVATGVADVVVAYRAFNERSGMRFGQVQTRLTENADSTGVDNSFSYPHGLSTPAAQVAMIARRYMHLSGATSRDFGAVSVADRKHAANNPKAYFYGKPITIEDHQNSRWIAEPLRLLDCCQETDGAVAIVVTSAARARDLKQRPVVIEAAAQGCSPDQYTMVSYYRPELDGLPEMGLVGRQLWAQSGLTPADVQTAVLYDHFTPFTLIQLEELGFCGKGEAKDFIADGAIEVGGRLPINTHGGQLGEAYIHGMNGIAEGVRQLRGTSVNPVAGVEHVLVTAGTGVPTSGLILG

What was measured:
[1] = target: B2; test: SAXS
[2] = target: the molecule itself; test: negative-stain EM

Row | Binder | binding result [1] | binding result [2]
1 | B1 | binds | 
2 | B2 |  | binds
